The record followed here is article PMC11319201.

This experiment has as its target STAG2^R370Q–RAD21 complex (UniProt Q8N3U4). In words: ITC; MicroCal iTC 200, 25 °C; 20 mM Tris pH 7.7, 150 mM NaCl, 0.5 mM TCEP; 300 μl of 50 μM STAG2–RAD21 in the cell, 500 μM CTCF peptide injected as 16 x 2.5 μl; one-site binding model. (In general: In ITC the heat of successive injections is recorded.)

STAG2^R370Q–RAD21 complex, sequence (Q8N3U4 whole entry R370Q, chain 1 of 2): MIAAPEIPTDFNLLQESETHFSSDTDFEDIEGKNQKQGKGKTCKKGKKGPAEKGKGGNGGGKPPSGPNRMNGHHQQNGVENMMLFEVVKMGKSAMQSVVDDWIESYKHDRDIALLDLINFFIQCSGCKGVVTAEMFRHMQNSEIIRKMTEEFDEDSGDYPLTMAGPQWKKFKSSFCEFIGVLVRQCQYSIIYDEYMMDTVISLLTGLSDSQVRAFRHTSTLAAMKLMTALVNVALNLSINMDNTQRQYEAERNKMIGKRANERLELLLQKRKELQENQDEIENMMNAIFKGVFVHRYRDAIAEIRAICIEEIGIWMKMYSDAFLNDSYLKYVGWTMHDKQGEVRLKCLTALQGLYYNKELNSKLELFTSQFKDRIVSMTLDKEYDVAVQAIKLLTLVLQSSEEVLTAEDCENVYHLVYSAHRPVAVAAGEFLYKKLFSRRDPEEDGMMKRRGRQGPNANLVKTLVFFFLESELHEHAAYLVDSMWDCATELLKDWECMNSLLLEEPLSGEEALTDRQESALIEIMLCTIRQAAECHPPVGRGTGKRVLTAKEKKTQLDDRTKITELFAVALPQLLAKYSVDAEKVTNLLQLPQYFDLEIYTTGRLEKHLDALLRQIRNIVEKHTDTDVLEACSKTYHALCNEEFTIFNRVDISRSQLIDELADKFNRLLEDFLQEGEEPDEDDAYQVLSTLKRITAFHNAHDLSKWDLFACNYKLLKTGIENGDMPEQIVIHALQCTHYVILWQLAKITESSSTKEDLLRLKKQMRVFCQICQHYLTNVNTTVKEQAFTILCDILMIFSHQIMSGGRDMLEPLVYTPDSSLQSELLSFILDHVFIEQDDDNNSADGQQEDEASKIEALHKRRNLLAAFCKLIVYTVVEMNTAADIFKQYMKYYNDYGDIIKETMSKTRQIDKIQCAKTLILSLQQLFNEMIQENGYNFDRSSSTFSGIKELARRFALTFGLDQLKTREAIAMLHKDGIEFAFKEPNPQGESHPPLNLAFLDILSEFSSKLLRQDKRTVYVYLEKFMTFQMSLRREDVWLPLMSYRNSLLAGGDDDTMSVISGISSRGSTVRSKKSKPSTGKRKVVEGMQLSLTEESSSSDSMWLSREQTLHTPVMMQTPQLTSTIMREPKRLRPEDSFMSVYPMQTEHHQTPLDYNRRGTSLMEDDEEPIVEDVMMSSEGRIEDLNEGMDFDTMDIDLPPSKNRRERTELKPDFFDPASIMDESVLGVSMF
STAG2^R370Q–RAD21 complex, sequence (O60216 whole entry, chain 2 of 2, further chain): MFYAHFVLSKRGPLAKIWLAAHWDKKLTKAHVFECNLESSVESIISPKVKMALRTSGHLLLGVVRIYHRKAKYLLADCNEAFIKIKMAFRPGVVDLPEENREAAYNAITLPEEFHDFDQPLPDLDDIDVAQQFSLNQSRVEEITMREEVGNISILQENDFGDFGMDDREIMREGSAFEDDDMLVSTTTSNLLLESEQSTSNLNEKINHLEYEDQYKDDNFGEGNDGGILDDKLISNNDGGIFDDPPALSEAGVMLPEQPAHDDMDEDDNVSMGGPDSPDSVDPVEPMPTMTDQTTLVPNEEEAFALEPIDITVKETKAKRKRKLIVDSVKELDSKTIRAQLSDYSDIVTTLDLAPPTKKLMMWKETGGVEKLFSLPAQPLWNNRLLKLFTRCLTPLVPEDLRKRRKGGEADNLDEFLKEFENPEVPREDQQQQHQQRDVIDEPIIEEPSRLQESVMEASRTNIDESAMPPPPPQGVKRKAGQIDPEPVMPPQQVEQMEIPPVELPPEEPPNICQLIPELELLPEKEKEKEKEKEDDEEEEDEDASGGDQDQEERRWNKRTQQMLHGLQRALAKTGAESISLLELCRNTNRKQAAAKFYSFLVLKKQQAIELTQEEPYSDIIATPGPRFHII

With CTCF peptide, the fold lower affinity than WT stood at 10 fold.
